The text below walks through data of paper PMC6356362.

Usually Kd stands for the free concentration of one partner at which half of the binding sites on the other are occupied at equilibrium, for simple one-to-one binding. The koff is a measure of how fast the partners let go of each other. What is called kon is the second-order rate constant of association.

The assay deals with recombinant GP of EBOV (Mayinga strain), mucin and TM domains-deleted protein (GP[change] sequence w (Zaire ebolavirus (EBOV), Mayinga strain), Q05320. Put plainly: SPR. Conditions: remark: other sources report otherwise.

B1: recombinant human surfactant protein D (hSP-D) dodecamers, P35247 21-375 (natural protein)
chain: AEMKTYSHRTMPSACTLVMCSSVESGLPGRDGRDGREGPRGEKGDPGLPGAAGQAGMPGQAGPVGPKGDNGSVGEPGPKGDTGPSGPPGPPGVPGPAGREGPLGKQGNIGPQGKPGPKGEAGPKGEVGAPGMQGSAGARGLAGPKGERGVPGERGVPGNTGAAGSAGAMGPQGSPGARGPPGLKGDKGIPGDKGAKGESGLPDVASLRQQVEALQGQVQHLQAAFSQYKKVELFPNGQSVGEKIFKTAGFVKPFTEAQLLCTQAGGQLASPRSAAENAALQQLVVAKNEAAFLSMTDSKTEGKFTYPTGESLVYSNWAPGEPNDDGGSEDCVEIFTNGKWNDRACGEKRLVVCEF
For B1, the dissociation constant (Kd) amounted to 0.33 nM, the koff was determined as 0.00121 s⁻¹ and the kon came to 3.65e+06 M⁻¹ s⁻¹.
